Here are results for four molecules from US20220048991A1 (BIOND BIOLOGICS, published 2022).

One test has as its target T1, PIRB (UniProt P97484 25-642, limits assumed).
T1 sequence (looked up): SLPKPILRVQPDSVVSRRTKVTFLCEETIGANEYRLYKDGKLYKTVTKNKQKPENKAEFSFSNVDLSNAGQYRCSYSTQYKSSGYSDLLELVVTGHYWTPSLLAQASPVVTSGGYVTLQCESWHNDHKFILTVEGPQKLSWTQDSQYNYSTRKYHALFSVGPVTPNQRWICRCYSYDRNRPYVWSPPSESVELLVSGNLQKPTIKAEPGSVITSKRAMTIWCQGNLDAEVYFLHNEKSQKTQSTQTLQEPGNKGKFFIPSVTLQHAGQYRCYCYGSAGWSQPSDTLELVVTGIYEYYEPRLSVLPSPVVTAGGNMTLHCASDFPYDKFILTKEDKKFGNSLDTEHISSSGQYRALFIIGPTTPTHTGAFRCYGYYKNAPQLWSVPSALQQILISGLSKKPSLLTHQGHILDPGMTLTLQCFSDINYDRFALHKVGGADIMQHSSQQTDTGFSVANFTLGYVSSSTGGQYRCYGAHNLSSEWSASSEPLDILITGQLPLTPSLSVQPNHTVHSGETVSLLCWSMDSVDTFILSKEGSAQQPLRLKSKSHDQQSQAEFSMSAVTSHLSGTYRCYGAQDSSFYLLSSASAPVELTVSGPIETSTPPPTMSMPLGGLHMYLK
Put plainly: binding ELISA, column PIRB; negative control. (ELISA stands for enzyme-linked immunosorbent assay.)

The next test has as its target LILRA1 (UniProt O75019 17-461, limits assumed). As to the kind of experiment: binding ELISA, column hLILRA1-His; negative control.
A further test has as its target ILT6 (UniProt Q8N6C8 24-439, limits assumed). As to the kind of experiment: binding ELISA, column hILT6-His; negative control.
Test [1] addresses T2, recombinant ILT2 (human) (human, UniProt Q8NHL6 24-461).
T2 construct: also called recombinant ILT2 peptide; ILT2 protein
Put plainly: binding ELISA, hILT2-Fc; negative control.

Test [2] concerns the target T2, recombinant ILT2 (human). Put plainly: binding ELISA, hILT2-Fc; positive control is GHI/75 by paragraph 244.
Test [3] addresses T3, biotinylated recombinant human ILT2-Fc (human, UniProt Q8NHL6 24-458, limits assumed, conjugated with biotin (sites not given)).
T3 construct: Bought (Sino Biologics); the order of the parts is therefore uncertain; also called ILT2-biotin; biotinylated ILT2; not shown: Fc portion of human IgG1
Put plainly: flow cytometry blocking assay: ILT2-biotin binding to cells expressing HLA-G [right panel]. As to the method: (§1) Flow cytometry blocking assay—Recombinant human ILT2 protein fused with the Fc portion of human IgG1 at the N terminal was conjugated with biotin (Innova bioscience). A total of 5×10⁵ A375/HLA-G1 cells were incubated in a volume of 100 μL in the presence of anti-ILT2 clone #1 or isotype matched control mAb and ILT2-Fc conjugated with biotin (10 μg/mL) for 30 minutes at room temperature. After several washing steps, streptavidin-PE was added at a final concentration of 0.2 μg/mL and incubated for 30 min on ice followed by FACS analysis.
(§2) The ability of the generated anti-ILT2 antibodies to block the interaction between HLA-G and ILT2 was tested using four different assays. First, a blocking flow cytometry assay was performed. HLA-G transfected A375 cells were incubated with biotinylated ILT2 in the presence of the antibodies of the present disclosure and a positive control antibody. The commercially available anti-ILT2 antibody GHI/75 (BioLegend, Cat. No. 333704) was used as the positive control. The binding of ILT2-biotin to the cells was determined using Streptavidin-PE by flow cytometry analysis (FIG. 8A). The percent of blocking was determined by normalizing to a negative control (ILT2 binding in the presence of control IgG). […] The percentage of blocking was calculated at various concentrations of antibody (FIG. 8C).
On the technique in general: In flow cytometry, cells or beads pass a laser one at a time.

In test [4] the target is T4, human ILT2 fused to mouse CD3 zeta chain, on BW cells (human; mouse). As to the kind of experiment: cell-based or functional assay.
The target in test [5] is T2, recombinant ILT2 (human). As to the kind of experiment: SPR (Biacore T200); KD relative to Control (chimeric 15G8). As to the method:
(§3) During grafting of the 15G8 CDRs, five heavy chains and four kappa light chains were generated. These chains were designated VH1-5 and Vk1-4. By combining each heavy chain with each light chain twenty different resultant antibodies are possible. All twenty possible antibodies were transiently expressed in HEK EBNA cells, and the supernatants were tested for binding to recombinant ILT2 peptide using a Biacore T200. The chimeric 15G8 antibody was used as control.
In general terms: Surface plasmon resonance follows binding to a sensor surface in real time, without labels.

Test [6] addresses T3, biotinylated recombinant human ILT2-Fc. As to the kind of experiment: B2M blocking ELISA: plate-bound recombinant human B2M-His, biotinylated ILT2-Fc at 20 µg/ml, titrated antibody, streptavidin-HRP; blocked ligand B2M. The method, then:
To test whether 15G8 can block the interaction between ILT2 and B2M, a B2M blocking ELISA was performed. 96 well nickel plates were coated with recombinant human B2M-His tag (3 μg/ml; Sino Biologics, 11976-H08H) overnight. Biotinylated ILT2-Fc (20 μg/ml; Sino Biologics, 1614-H02H; Innova Biosciences, 370-0010) was added for 2 hours at 37° C., which allowed ILT2 binding to B2M, in the presence or absence of titrated BND-22 or an irrelevant antibody (anti human CD28, Biolegend, 302934) (Ab range of 80-0.1 μg/ml, ×3 fold). ILT2 binding to B2M was detected by HRP conjugated streptavidin (R&D Systems, DY998). The absorbance was measured using an ELISA Reader (Biotek Synergy-H1 plate reader).

Test [7] shares this target. As to the kind of experiment: flow cytometry blocking assay: ILT2-biotin binding to cells expressing HLA-G. The method, then: as §1, §2
The target of test [8] is T2, recombinant ILT2 (human). Put plainly: SPR (Biacore T200), HEK EBNA supernatants on recombinant ILT2 peptide. As to the method:
as §3

Test [9] deals with T4, human ILT2 fused to mouse CD3 zeta …. Put plainly: flow cytometry on BW cells transfected with human ILT2; fold above background (FAB) [left panel].
In test [10] the target is T3, biotinylated recombinant human ILT2-Fc. As to the kind of experiment: flow cytometry blocking assay: ILT2-biotin binding to cells expressing HLA-G [left panel]. As to the method: as §1, §2

T2 sequence (Q8NHL6 24-461 limits assumed): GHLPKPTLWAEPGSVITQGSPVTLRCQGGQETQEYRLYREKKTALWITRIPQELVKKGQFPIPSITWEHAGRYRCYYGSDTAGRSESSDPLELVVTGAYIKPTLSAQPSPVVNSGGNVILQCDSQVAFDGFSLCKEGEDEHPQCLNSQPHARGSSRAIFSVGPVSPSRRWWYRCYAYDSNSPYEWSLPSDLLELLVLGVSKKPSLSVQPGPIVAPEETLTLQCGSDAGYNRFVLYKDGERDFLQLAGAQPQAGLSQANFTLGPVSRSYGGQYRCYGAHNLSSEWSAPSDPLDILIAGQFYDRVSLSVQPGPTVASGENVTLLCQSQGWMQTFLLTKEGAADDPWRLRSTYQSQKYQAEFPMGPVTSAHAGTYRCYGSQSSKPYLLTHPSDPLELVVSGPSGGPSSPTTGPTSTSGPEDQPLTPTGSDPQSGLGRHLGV
T3 sequence (Q8NHL6 24-458 limits assumed): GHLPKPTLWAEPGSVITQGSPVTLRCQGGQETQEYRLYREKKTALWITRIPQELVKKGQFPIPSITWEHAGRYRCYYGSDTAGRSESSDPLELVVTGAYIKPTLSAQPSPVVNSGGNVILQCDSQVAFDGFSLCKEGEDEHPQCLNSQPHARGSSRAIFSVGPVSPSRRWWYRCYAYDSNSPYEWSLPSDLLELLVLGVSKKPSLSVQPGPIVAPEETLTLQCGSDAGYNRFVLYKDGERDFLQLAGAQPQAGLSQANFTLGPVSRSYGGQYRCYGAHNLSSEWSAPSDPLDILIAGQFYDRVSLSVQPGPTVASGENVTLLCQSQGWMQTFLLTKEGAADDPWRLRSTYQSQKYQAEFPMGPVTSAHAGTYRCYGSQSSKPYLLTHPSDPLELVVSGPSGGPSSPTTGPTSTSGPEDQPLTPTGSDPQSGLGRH
T4 sequence (P24161 other isoform, or with tags, fused parts or gaps limits assumed): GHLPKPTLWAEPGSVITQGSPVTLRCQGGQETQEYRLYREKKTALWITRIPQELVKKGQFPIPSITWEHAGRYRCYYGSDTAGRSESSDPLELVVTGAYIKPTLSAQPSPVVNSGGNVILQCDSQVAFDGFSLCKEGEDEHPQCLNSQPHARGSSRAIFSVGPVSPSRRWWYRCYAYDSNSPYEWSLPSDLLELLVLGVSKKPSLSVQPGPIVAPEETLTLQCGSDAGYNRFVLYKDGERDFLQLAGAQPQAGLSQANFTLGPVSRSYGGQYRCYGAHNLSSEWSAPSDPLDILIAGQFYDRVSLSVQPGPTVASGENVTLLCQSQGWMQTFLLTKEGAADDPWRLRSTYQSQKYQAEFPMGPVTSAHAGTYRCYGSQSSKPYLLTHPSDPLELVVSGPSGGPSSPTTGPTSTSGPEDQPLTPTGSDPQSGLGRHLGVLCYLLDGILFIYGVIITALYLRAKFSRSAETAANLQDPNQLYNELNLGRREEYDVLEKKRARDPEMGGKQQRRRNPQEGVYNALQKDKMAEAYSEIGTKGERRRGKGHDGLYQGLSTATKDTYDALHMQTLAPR
Sequence of LILRA1 (O75019 17-461 limits assumed): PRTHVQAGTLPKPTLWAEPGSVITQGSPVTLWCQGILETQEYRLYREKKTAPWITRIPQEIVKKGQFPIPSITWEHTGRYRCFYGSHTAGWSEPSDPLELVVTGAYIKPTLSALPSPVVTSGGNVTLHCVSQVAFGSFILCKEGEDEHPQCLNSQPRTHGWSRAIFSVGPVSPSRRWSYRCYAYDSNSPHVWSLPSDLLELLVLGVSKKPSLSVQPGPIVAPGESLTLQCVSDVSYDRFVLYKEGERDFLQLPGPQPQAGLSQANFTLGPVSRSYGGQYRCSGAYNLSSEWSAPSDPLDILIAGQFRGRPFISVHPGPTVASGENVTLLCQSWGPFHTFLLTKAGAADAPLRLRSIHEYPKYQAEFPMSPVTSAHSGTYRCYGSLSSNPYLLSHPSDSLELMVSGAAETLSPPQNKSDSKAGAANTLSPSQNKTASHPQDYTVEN
Sequence of ILT6 (Q8N6C8 24-439 limits assumed): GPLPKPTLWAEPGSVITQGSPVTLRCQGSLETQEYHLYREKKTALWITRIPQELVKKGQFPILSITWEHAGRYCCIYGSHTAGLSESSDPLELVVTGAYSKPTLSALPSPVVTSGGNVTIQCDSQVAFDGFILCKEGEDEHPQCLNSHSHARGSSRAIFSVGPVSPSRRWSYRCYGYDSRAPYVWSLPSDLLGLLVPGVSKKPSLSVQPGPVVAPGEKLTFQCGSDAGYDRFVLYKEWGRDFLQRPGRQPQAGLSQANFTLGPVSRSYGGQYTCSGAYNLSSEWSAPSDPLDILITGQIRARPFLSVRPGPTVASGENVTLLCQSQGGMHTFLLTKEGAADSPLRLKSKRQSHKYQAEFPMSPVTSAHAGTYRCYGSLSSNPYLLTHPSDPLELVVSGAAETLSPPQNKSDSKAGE

Consider Negative, for which the ELISA (OD) in the test with PIRB came out at 0.0575 OD; with LILRA1, 0.13 OD; with ILT6, 0.071 OD; in the test with recombinant ILT2 (human) [1], 0.05 OD.

On to “GHI/75 (commercial mouse anti-human ILT2 antibody, BioLegend Cat. No. 333704)”, for which, in the test with recombinant ILT2 (human) [2], the ELISA (OD) stood at 2.45 OD.

B1: 15G8-13 (humanized 15G8, VH1/Vk3, alanine variant A108) (antibody, human IgG4 S228P, kappa, V domains shown)
VH: DVQLQGSGPGLVKPSETLSLTCSVTGYSITSGYYWNWIRQFPGKKLEWMGYISYDGSNNYNPSLKNRITISRDTSKNQFSLKLNSVTAADTATYYCAHGYSYYYAMDAWGQGTSVTVSS
VL: DIQMTQSPSSLSASVGDRVTITCRTSQDISNYLNWYQQKPGKAVKLLISYTSRLHSGVPSRFSGSGSGTDYTLTISSLQPEDFATYYCQQGNTLPTFGQGTKLEIKR
notes: Humanized IgG4 (S228P, L235E), kappa; also called 15G8 humanized antibody; BND-22
Turning to B1, the “IC50 (read off the curve)” value in test [3] was around 0.2 µg/mL. In addition, the “IC50 (read off the curve) of Blocking (%) in the BW-ILT2 / A375-HLA-G mouse IL-2 reporter assay” value in [4] is around 0.02 µg/mL. In the test with recombinant ILT2 (human) [5], the “Relative KD” value worked out at 0.55. Moreover, the “IC50 (read off the curve)” value in test [6] was around 8 µg/mL. The “IC50 (read off the curve)” value in test [7] is around 0.3 µg/mL. Moreover, in the test with recombinant ILT2 (human) [8], the dissociation constant (Kd) (as a rule, a measure of binding affinity in units of concentration) amounted to 6.94 nM; the koff (commonly the rate constant with which the complex falls apart) turned out to be 0.00905 s⁻¹; the on-rate constant (kon) – broadly, the rate constant with which the complex forms – was 1.3e+06 M⁻¹ s⁻¹.

B2: chimeric 19E3 (antibody, V domains shown)
VH: QVQLQQSGAELARPGASVKLSCKASGYTFTSYGISWVKQRTGQGLEWVGEIYPGSGNSYYNEKFKGKATLTADKSSSTAYMELRSLTSEDSAVYFCARSNDGYPDYWGQGTTLTVSS
VL: DIQMTQSSSYLSVSLGGRVTITCKASDHINNWLAWYQQKPGNAPRLLISGATSLETGVPSRFSGSGSGKDYTLSITSLQTEDVATYYCQQYWSTPWTFGGGTKLEIK
notes: Chimera of murine 19E3; also called chimeric murine 19E3
As to B2, the EC50 (read off the curve) (as a rule, the concentration at which the effect is half-maximal) in test [9] is around 0.6 µg/mL. The “IC50 (read off the curve)” value in [10] is around 0.6 µg/mL.
